Source: article PMC8269012

Molecular target: PwNAC11-cYFP fusion protein (Picea wilsonii)

B1: ABF3 in pSPYNE (BiFC fusion) (natural protein)
chain: MGSRLNFKSFVDGVSEQQPTVGTSLPLTRQNSVFSLTFDEFQNSWGGGIGKDFGSMNMDELLKNIWTAEESHSMMGNNTSYTNISNGNSGNTVINGGGNNIGGLAVGVGGESGGFFTGGSLQRQGSLTLPRTISQKRVDDVWKELMKEDDIGNGVVNGGTSGIPQRQQTLGEMTLEEFLVRAGVVREEPQPVESVTNFNGGFYGFGSNGGLGTASNGFVANQPQDLSGNGVAVRQDLLTAQTQPLQMQQPQMVQQPQMVQQPQQLIQTQERPFPKQTTIAFSNTVDVVNRSQPATQCQEVKPSILGIHNHPMNNNLLQAVDFKTGVTVAAVSPGSQMSPDLTPKSALDASLSPVPYMFGRVRKTGAVLEKVIERRQKRMIKNRESAARSRARKQAYTMELEAEIAQLKELNEELQKKQVEIMEKQKNQLLEPLRQPWGMGCKRQCLRRTLTGPW
dual-luciferase assay in tobacco: activation of the ERD1 promoter reporter on simultaneous expression of PwNAC11 and ABF3, against the control group (PwNAC11 alone 2.67-fold over empty vector): 3.04 fold
